Results on three substances are retold here after publication PMC3098264, “Crystal Structure of the PAC1R Extracellular Domain Unifies a Consensus Fold for Hormone Recognition by Class B G-Protein Coupled Receptors” (PLoS ONE, 2011).

The target in the experiment is T1, human PAC1R ECD (MBP-PAC1R (25–140)-His6) (Homo sapiens, UniProt P41586).
T1 construct: made in house; host or cells: E. coli Origami B (DE3), co-expressed with DsbC from pET-Duet1
T1 sequence (P41586 25-140 isoform P41586-3): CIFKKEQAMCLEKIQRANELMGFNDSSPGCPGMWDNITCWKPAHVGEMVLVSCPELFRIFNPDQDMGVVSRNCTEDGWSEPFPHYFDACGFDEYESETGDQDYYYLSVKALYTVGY
In words: AlphaScreen competitive peptide binding assay (unlabelled PACAP peptides vs biotin-PACAP (6–38)-NH2). To be noted: Ala scanning mutants of PACAP (15–31), 120 µM untagged competing peptides, 40 nM protein and biotinylated PACAP, 20°C, five hours, pH 7.4.

“Also recorded” adds a separate entry of the source.

Description: The binding of PAC1R with a 35 residue PACAP peptide was analysed using the histidine detection kit of AlphaScreen® luminescent proximity assay from PerkinElmer. All binding assays were performed without cleaving the MBP tag from the receptor ECD. Using its C-terminal His tag, PAC1R was bound to Ni-chelate coated acceptor beads (5 µg/ml) at the final concentrations of 40 nM. Similarly, biotinylated PACAP was bound to streptavidin coated donor beads (5 µg/ml) at the final concentrations of 40 nM. The protein and peptide were pre-incubated with the respective beads for one hour (to ensure maximal binding to the beads), then they were allowed to interact with each other at 20°C for five hours. To perform competitive binding assays, 120 µM of the untagged competing peptides were added at time 0 of the five hour protein-peptide interaction period. All interactions were performed in the background of 50 mM MOPS pH 7.4, 150 mM NaCl and 7 mg/ml BSA. The binding signals were measured in a 384-well microplate using an Envision 2104 plate reader (PerkinElmer). The obtained data for competitive peptide binding were fit as a non-linear regression curve using the variable slope dose-response inhibition analysis using the Prism5.0 (GraphPad). To ensure the specificity of the competing peptides, a control peptide of biotin-Gly6-His6 was used in the same assay setup.

Regarding “V19A′: Ala scanning mutant of PACAP (15–31) (KQMAAKKYLAAVLGKRY; Pituitary adenylate cyclase-activating polypeptide 38; UniProt P18509 146-162, looked up, variant V19A)”, the “effect of Ala mutation in PACAP (15–31) on binding to PAC1R ECD (Ala scanning)” value (shortened to “effect of Ala mutation in PACAP”) was “seem to play important roles in the binding; also recorded: affect the binding to PAC1R the most”.

For “L27A′: Ala scanning mutant of PACAP (15–31) (KQMAVKKYLAAVAGKRY; Pituitary adenylate cyclase-activating polypeptide 38; UniProt P18509 146-162, looked up, variant L27A)”, the “effect of Ala mutation in PACAP” value was “seem to play important roles in the binding; also recorded: affect the binding to PAC1R the most”.

For “K20A′: Ala scanning mutant of PACAP (15–31) (KQMAVAKYLAAVLGKRY; Pituitary adenylate cyclase-activating polypeptide 38; UniProt P18509 146-162, looked up, variant K20A)”, the “effect of Ala mutation in PACAP” value was “affect the binding to PAC1R the most; also recorded: almost completely abolishes the ability of the peptide to bind the receptor ECD”.
